Measured values taken from the supplement of paper PMC7125110.
± gives the standard error. For some assays here: This sample holds only a part of the variants without activity.

B1: glmS ribozyme (parent)
chain: AUAAAAGCGCCAGAACUACAGAAAUGUAGUUGACGAGGAGGAGGUUUAUCGAAUUUUCGGCGGAUGCCUCCAAA

Tests used:
Details in all cases: with glucosamine-6-phosphate
glucosamine-6-phosphate [1] = variants of: B1; assay: kcat; higher = faster cleavage; RNA array
How it was run: (§1)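 Sequenced MiSeq chips were the platform: E. coli RNA polymerase transcribed barcoded ribozyme variants on them in situ, and a hybridised Cy3 probe tracked these at 37 °C. After glucosamine-6-phosphate (40 μM to 10 mM) in HEPES/KCl/Mg(OAc)2 buffer was flowed in, tiles were imaged over ~14 h. Signals normalised to baseline and to non-cleaving reference variants were reduced to per-tile medians and fit to one- or two-exponential decays to obtain kobs. kcat and KM were derived through weighted Michaelis–Menten fits across concentrations.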

glucosamine-6-phosphate [2] = variants of: B1; assay: KM; higher = weaker cofactor use; RNA array
How it was run: as §1

glucosamine-6-phosphate [3] = variants of: B1; assay: self-cleavage kobs at 2500 uM GlcN6P; higher = faster cleavage; RNA array
How it was run: as §1

glucosamine-6-phosphate [4] = variants of: B1; assay: self-cleavage kobs at 10000 uM GlcN6P; higher = faster cleavage; RNA array
How it was run: as §1

glucosamine-6-phosphate [5] = variants of: B1; assay: self-cleavage kobs at 640 uM GlcN6P; higher = faster cleavage; RNA array
How it was run: as §1

glucosamine-6-phosphate [6] = variants of: B1; assay: self-cleavage kobs at 160 uM GlcN6P; higher = faster cleavage; RNA array
How it was run: as §1

glucosamine-6-phosphate [7] = variants of: B1; assay: self-cleavage kobs at 40 uM GlcN6P; higher = faster cleavage; RNA array
How it was run: as §1

Variant | kcat (glucosamine-6-phosphate [1]) [s⁻¹] | KM (glucosamine-6-phosphate [2]) [µM] | self-cleavage kobs at 2500 uM GlcN6P (glucosamine-6-phosphate [3]) [s⁻¹] | self-cleavage kobs at 10000 uM GlcN6P (glucosamine-6-phosphate [4]) [s⁻¹] | self-cleavage kobs at 640 uM GlcN6P (glucosamine-6-phosphate [5]) [s⁻¹] | self-cleavage kobs at 160 uM GlcN6P (glucosamine-6-phosphate [6]) [s⁻¹] | self-cleavage kobs at 40 uM GlcN6P (glucosamine-6-phosphate [7]) [s⁻¹]
C16U G43U | 4.2e-05 ± 1.9e-07 | 1250 ± 27 | 2.81e-05 ± 1.3e-05 | 3.73e-05 ± 1e-05 |  |  | 
U30C C58U C70U | 3.42e-05 ± 1.3e-05 |  | 3.95e-05 ± 1.9e-05 |  | 5.85e-05 ± 2.1e-05 |  | 
C16U C61U | 1.75e-05 ± 1.4e-06 |  |  |  |  |  | 
C16U G32A A33G C58U C70G | 3.69e-05 ± 8.5e-06 |  |  |  |  |  | 
G29U U54A U65A | 0.000347 ± 8.3e-05 |  | 0.000241 ± 3.4e-05 | 0.000456 ± 0.00011 | 0.000149 ± 2.1e-05 | 8.02e-05 ± 2.9e-05 | 
G29A G40A | 0.000354 ± 5.1e-05 | 1090 ± 350 | 0.000222 ± 3.7e-05 | 0.000353 ± 7.2e-05 | 0.000154 ± 2.9e-05 | 3.78e-05 ± 1.7e-05 | 
G29A G40U | 0.000248 ± 5.6e-05 |  | 0.000207 ± 2.8e-05 | 0.000182 ± 4e-05 | 8.95e-05 ± 1.9e-05 |  | 
G29U U45C | 0.000348 ± 1.1e-05 | 2130 ± 200 | 0.000204 ± 0.0001 | 0.000286 ± 4.9e-05 | 7.89e-05 ± 3.4e-05 |  | 
G29A C70G | 6.2e-05 ± 1.1e-05 |  | 7.74e-05 ± 8.4e-06 | 4.28e-05 ± 8.6e-06 | 5.96e-05 ± 1.1e-05 | 5.22e-05 ± 1.7e-05 | 
G29C C68U | 0.000269 ± 5.9e-05 | 959 ± 460 | 0.000172 ± 1.2e-05 | 0.000368 ± 3.6e-05 | 0.000112 ± 8.7e-06 | 4.12e-05 ± 5.7e-06 | 2.38e-05 ± 1.1e-05
G29A U54A | 0.00945 ± 0.0024 | 3150 ± 1100 | 0.00422 ± 0.00084 | 0.00745 ± 0.0014 | 0.0011 ± 0.00037 |  | 0.000135 ± 2.1e-05
U30A C58U | 1.78e-05 ± 3.6e-06 |  |  |  |  |  | 
G29U U47A | 0.00313 ± 0.00095 | 1350 ± 650 | 0.00104 ± 0.00036 | 0.0033 ± 0.00035 | 0.000972 ± 0.00015 |  | 9.83e-05 ± 1.2e-05
U30C A39C | 0.000139 ± 1.1e-05 | 4210 ± 820 | 5.33e-05 ± 1e-05 | 9.75e-05 ± 9.4e-06 |  |  | 
G29U G37C | 1.83e-05 ± 2.2e-06 |  |  |  |  |  | 
U30C C71A | 9.39e-05 ± 4.7e-06 | 1300 ± 180 | 6.1e-05 ± 9.3e-06 | 8.36e-05 ± 1.3e-05 | 3.17e-05 ± 8.4e-06 |  | 
G29U A64C | 1.56e-05 ± 2.5e-06 |  |  |  |  |  | < 1e-05
C16U U65C | 0.000756 ± 0.00022 | 2290 ± 1100 | 0.000332 ± 6.8e-05 | 0.000697 ± 0.00011 | 0.000152 ± 2.2e-05 | 8.27e-05 ± 1.8e-05 | 

Variant | kcat (glucosamine-6-phosphate [1]) [s⁻¹] | KM (glucosamine-6-phosphate [2]) [µM] | self-cleavage kobs at 2500 uM GlcN6P (glucosamine-6-phosphate [3]) [s⁻¹] | self-cleavage kobs at 10000 uM GlcN6P (glucosamine-6-phosphate [4]) [s⁻¹] | self-cleavage kobs at 640 uM GlcN6P (glucosamine-6-phosphate [5]) [s⁻¹] | self-cleavage kobs at 160 uM GlcN6P (glucosamine-6-phosphate [6]) [s⁻¹] | self-cleavage kobs at 40 uM GlcN6P (glucosamine-6-phosphate [7]) [s⁻¹]
U30A U47G | 0.000918 ± 0.00028 |  | 0.000481 ± 0.00024 | 0.00109 ± 0.00021 | 0.000406 ± 8.6e-05 |  | 7.81e-05 ± 2.4e-05
G29C U57A | 4.62e-05 ± 8e-06 |  |  | 3.78e-05 ± 1.1e-05 |  |  | 
G29C A52U C70G | 2.41e-05 ± 5.5e-06 |  |  |  |  |  | < 1e-05
U30A C67U | 0.00166 ± 0.00065 |  | 0.00118 ± 0.00017 | 0.00106 ± 0.00034 | 0.00036 ± 6.4e-05 | 0.000105 ± 2.1e-05 | 5.62e-05 ± 1.2e-05
U30A C67G | 0.000166 ± 1.4e-05 | 1650 ± 330 | 9.16e-05 ± 8.4e-06 | 0.00015 ± 1.3e-05 | 5.03e-05 ± 5.9e-06 |  | 
C16U U31C | 0.00735 ± 0.00094 | 1980 ± 350 | 0.0036 ± 0.00062 | 0.00694 ± 0.0011 | 0.00161 ± 0.00048 | 0.000588 ± 0.00011 | 0.000149 ± 2.1e-05
G29C A33U | 2.55e-05 ± 6.2e-07 | 979 ± 140 |  | 2.33e-05 ± 1.2e-05 |  |  | 
G29A U65A | 0.000167 ± 6.7e-05 |  | 0.000122 ± 2.8e-05 |  | 0.000132 ± 3e-05 |  | 
G29U C50A | < 1e-05 |  |  |  |  |  | < 1e-05
G29U C50U | 1.34e-05 ± 9.1e-07 | 3520 ± 700 |  |  |  | < 1e-05 | 
G29C C67A | 0.000293 ± 7.2e-05 |  | 0.000163 ± 3.2e-05 | 0.000363 ± 5.2e-05 | 0.000128 ± 1.9e-05 | 5.79e-05 ± 1.3e-05 | 
U30A A39U | 0.00467 ± 0.0022 |  | 0.0022 ± 0.00046 | 0.00745 ± 0.0016 | 0.00188 ± 0.00036 | 0.000401 ± 8.1e-05 | 0.000191 ± 5.4e-05
A20G C58U C70G | 7.18e-05 ± 2.9e-05 |  | 7.21e-05 ± 1.9e-05 |  | 0.000104 ± 2.6e-05 |  | 
G29U G66A | 0.0034 ± 0.00083 | 1710 ± 700 | 0.00168 ± 0.00038 | 0.00316 ± 0.00039 | 0.000732 ± 0.00016 | 0.000716 ± 0.0002 | 8.79e-05 ± 1.5e-05
G29U G66U | 0.000182 ± 1.7e-05 | 1300 ± 360 | 0.000151 ± 2.6e-05 | 0.000156 ± 1.6e-05 | 5.65e-05 ± 1.1e-05 |  | 
U30A G41A | 0.000441 ± 3.4e-05 | 6390 ± 730 | 0.000127 ± 2.3e-05 | 0.000265 ± 5.7e-05 | 3.92e-05 ± 1.2e-05 |  | 
U30A G41U | 0.000138 ± 2.1e-05 | 608 ± 300 | 0.000147 ± 1.8e-05 | 0.000117 ± 1.4e-05 | 6.73e-05 ± 9.9e-06 |  | 
